What follows are sequences tested on K4 kissing-loop RNA reporter (assay: apparent KD of K4 kissing-loop reporter; higher = weaker reporter binding). Conditions: Eterna round: R107; input ligand: none.
Method: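 RNA-MaP round R107: designed RNA switches with theophylline, tryptophan, arginine or FMN aptamers are transcribed on-chip within common flanks. They are titrated with a labelled K4 kissing-loop RNA reporter in RNA-MaP buffer (100 mM Tris pH 7.5, 80 mM KCl, 4 mM MgCl2), without ligand or with the indicated ligand. Median apparent KD per design.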
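Also: bound reporter read as fluorescence of individual clusters on recovered sequencing chips by microscopy, with normalized cluster intensities fitted with a binding model.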

Sequence | apparent KD of K4 kissing-loop reporter [nM]
GUACGCUCCCGAGUGAUGUUCGGUAAUCGCGAGGAUAUCGCUUUUGCGAGAAGGCGCGGAAUGAGGAAACUCGUUCUGAGUGUAC [FMN A 25] | 253
GCCGUACGCACGGAUACCAGCACUCGGUGAGUGAUGUUCACGGUGUGGUAUUCAUCGGGCUGCCCUUGGCAGCCGUGCGUACGGC | 101
AAUAUAUAGUGAAGGAGCGCGUAUUGCAGUGAUGUUGCUAAGUUAUUAUUAUCUAUUUUUACGCAGGUAGGUCGCACUAUAUAUA [JR_SSArginiB_Sub014] | 224
CGUCUAUAGCAGGAUACCAGUACCCAUUAUGUACGUUUAUAGUAGAGUGAUGUUCUAAAGUACCCUUGGCAGCUUCCUGUGACCC [#24 K4 Theophylline B Exclusion] | 189
UAUAUAUGAUGUGAUACCAGUGAAAAGCCAGUGAUGUUGGUAGAACUGGUAUAUAAAUGGCACCCUUGGCAGCACAAUCACGUAU [#28 K4 Theophylline B Exclusion] | 114
AAUGCAUAGUGAAGGAGCGCGUAUAGCAGUGAUGUUGCUUACUUAUUAUUAUAUUAAUUGACGCAGGUAGGUCGCACUUUGCAUA [JR_ExcArginiB_Sub022] | 196
AGUGAUGUUGUGUUGUGUUAGGGAAGUGAUCGAGGACCGGUACGGCCGCCACUCGAGUGAUGAGUGAGUGAUGUUUGUUUAGGGA [whbob_SS_Tryp_A_m8] | 395
AUAGAAAAGUGGCACCCUCACUAAAACAGUCGAGGACCGGUACGGCCGCCACUCGCGCGCUUUAGUGAUGUUAAAGCUAUGCAAA | 380
CCGUCGACAAGCGCCAUCGUCUACGUCAAUAAGGAUAUCAUCAAGGUGAGAAGGUAUGACAACCGGAGUGAUGUUCCAGGGCGAA [theeternabot_sameState_KL_FMN_A_5] | 368

Same assay, conditions: Eterna round: R107; input ligand: theophylline 20 uM

Sequence | apparent KD of K4 kissing-loop reporter [nM]
ACGCUUGAAUAACAAGCGAAAUAAAAUUCGCGAGGACCGGUACGGCCGCCACUCGCUAACUGCGAGUGAUGUUCGAUAAUAAAAU [Mat - Mod of OpenEnded 3 - D16] | 208
UGUACCGAGUCAGGAUAUGGCGUCGAAAGACGAAUCUUAGUGAUGUUAGGGAUCUGCGAAAGCAGUUCAGAAGGGACUUGGUACU [FmnBS 26 U37+U67] | 556
UUUGGAGUGGGAGGAUAUCCUAAUAUGGGUGAUGUUAGCGAUGUUGAAGGUGUAGUGAUGUUAUGCGGAGAAGGCCCAGUGUAGA [BDazzled - #18 - Exc. FMN B] | 273
GGUAGCAUGGCGGCCGCCACUUAAUCACUCCAGGAUGAGGAAUAUAAGCAGUGAUGUUGCUAAGUAAGGACCGGGCCAUGCUACC | 354
UGAUAGGACAGAAGGAGCGGUAGUGAUGUUACCAAAAGGUUAAGGUGUCAAAAGACACCCUGCCAGGUAGGUCGCUGUCCUAUCU | 89.9
GUACGCUUCCGAGUGAUGUUCGGAAAUCGCUAGGAUAUCGCUUUUGCGAGAAGGAGCGCAAUGAGGAAACUCGUUGUUAGUGUAC [FMN A 27] | 171
CGAUGGAUGGCAGGAUAUAGACAUUGAGUGAUGUUCGAUGAUUAUCCAUAUUCCCGUCACCUAUGACUAGAAGGGCCAUCCAUCG | 587
AGCGACUCUUCGGAGUCGCGGCUAAGGGAUACCAGUGAUGUUGGUCACCCUUGGCAGCCCAGAAGCCAAGCCACCAAAGGUGGCA [Omei KL Theo A Exc A v5] | 114
UGACUGGACUGAAGGAGCGGGCGAGACAAAGUCUCGAACUCGUAGUGAUGUUACGAAAUAACCCAGGUAGGUCGCAGUCUAGUCU | 67.2
GUACGCUCCCGAGUGAUGUUCGGUAAUCGCGAGGAUAUCGCUUUUGCGAGAAGGCGCGGAAUGAGGAAACUCGUUCUGAGUGUAC [FMN A 25] | 212
GCCGUACGCACGGAUACCAGCACUCGGUGAGUGAUGUUCACGGUGUGGUAUUCAUCGGGCUGCCCUUGGCAGCCGUGCGUACGGC | 129
AAUAUAUAGUGAAGGAGCGCGUAUUGCAGUGAUGUUGCUAAGUUAUUAUUAUCUAUUUUUACGCAGGUAGGUCGCACUAUAUAUA [JR_SSArginiB_Sub014] | 245
CGUCUAUAGCAGGAUACCAGUACCCAUUAUGUACGUUUAUAGUAGAGUGAUGUUCUAAAGUACCCUUGGCAGCUUCCUGUGACCC [#24 K4 Theophylline B Exclusion] | 206
UAUAUAUGAUGUGAUACCAGUGAAAAGCCAGUGAUGUUGGUAGAACUGGUAUAUAAAUGGCACCCUUGGCAGCACAAUCACGUAU [#28 K4 Theophylline B Exclusion] | 120
AAUGCAUAGUGAAGGAGCGCGUAUAGCAGUGAUGUUGCUUACUUAUUAUUAUAUUAAUUGACGCAGGUAGGUCGCACUUUGCAUA [JR_ExcArginiB_Sub022] | 181
AGUGAUGUUGUGUUGUGUUAGGGAAGUGAUCGAGGACCGGUACGGCCGCCACUCGAGUGAUGAGUGAGUGAUGUUUGUUUAGGGA [whbob_SS_Tryp_A_m8] | 3230
AUAGAAAAGUGGCACCCUCACUAAAACAGUCGAGGACCGGUACGGCCGCCACUCGCGCGCUUUAGUGAUGUUAAAGCUAUGCAAA | 407
CCGUCGACAAGCGCCAUCGUCUACGUCAAUAAGGAUAUCAUCAAGGUGAGAAGGUAUGACAACCGGAGUGAUGUUCCAGGGCGAA [theeternabot_sameState_KL_FMN_A_5] | 304

Same assay, conditions: Eterna round: R107; input ligand: tryptophan 2.4 mM

Sequence | apparent KD of K4 kissing-loop reporter [nM]
ACGCUUGAAUAACAAGCGAAAUAAAAUUCGCGAGGACCGGUACGGCCGCCACUCGCUAACUGCGAGUGAUGUUCGAUAAUAAAAU [Mat - Mod of OpenEnded 3 - D16] | 69.1
UGUACCGAGUCAGGAUAUGGCGUCGAAAGACGAAUCUUAGUGAUGUUAGGGAUCUGCGAAAGCAGUUCAGAAGGGACUUGGUACU [FmnBS 26 U37+U67] | 515
UUUGGAGUGGGAGGAUAUCCUAAUAUGGGUGAUGUUAGCGAUGUUGAAGGUGUAGUGAUGUUAUGCGGAGAAGGCCCAGUGUAGA [BDazzled - #18 - Exc. FMN B] | 221
GGUAGCAUGGCGGCCGCCACUUAAUCACUCCAGGAUGAGGAAUAUAAGCAGUGAUGUUGCUAAGUAAGGACCGGGCCAUGCUACC | 201
UGAUAGGACAGAAGGAGCGGUAGUGAUGUUACCAAAAGGUUAAGGUGUCAAAAGACACCCUGCCAGGUAGGUCGCUGUCCUAUCU | 83.4
GUACGCUUCCGAGUGAUGUUCGGAAAUCGCUAGGAUAUCGCUUUUGCGAGAAGGAGCGCAAUGAGGAAACUCGUUGUUAGUGUAC [FMN A 27] | 163
CGAUGGAUGGCAGGAUAUAGACAUUGAGUGAUGUUCGAUGAUUAUCCAUAUUCCCGUCACCUAUGACUAGAAGGGCCAUCCAUCG | 577
AGCGACUCUUCGGAGUCGCGGCUAAGGGAUACCAGUGAUGUUGGUCACCCUUGGCAGCCCAGAAGCCAAGCCACCAAAGGUGGCA [Omei KL Theo A Exc A v5] | 113
UGACUGGACUGAAGGAGCGGGCGAGACAAAGUCUCGAACUCGUAGUGAUGUUACGAAAUAACCCAGGUAGGUCGCAGUCUAGUCU | 74.9
GUACGCUCCCGAGUGAUGUUCGGUAAUCGCGAGGAUAUCGCUUUUGCGAGAAGGCGCGGAAUGAGGAAACUCGUUCUGAGUGUAC [FMN A 25] | 233
GCCGUACGCACGGAUACCAGCACUCGGUGAGUGAUGUUCACGGUGUGGUAUUCAUCGGGCUGCCCUUGGCAGCCGUGCGUACGGC | 107
AAUAUAUAGUGAAGGAGCGCGUAUUGCAGUGAUGUUGCUAAGUUAUUAUUAUCUAUUUUUACGCAGGUAGGUCGCACUAUAUAUA [JR_SSArginiB_Sub014] | 193
CGUCUAUAGCAGGAUACCAGUACCCAUUAUGUACGUUUAUAGUAGAGUGAUGUUCUAAAGUACCCUUGGCAGCUUCCUGUGACCC [#24 K4 Theophylline B Exclusion] | 163
UAUAUAUGAUGUGAUACCAGUGAAAAGCCAGUGAUGUUGGUAGAACUGGUAUAUAAAUGGCACCCUUGGCAGCACAAUCACGUAU [#28 K4 Theophylline B Exclusion] | 117
AAUGCAUAGUGAAGGAGCGCGUAUAGCAGUGAUGUUGCUUACUUAUUAUUAUAUUAAUUGACGCAGGUAGGUCGCACUUUGCAUA [JR_ExcArginiB_Sub022] | 156
AGUGAUGUUGUGUUGUGUUAGGGAAGUGAUCGAGGACCGGUACGGCCGCCACUCGAGUGAUGAGUGAGUGAUGUUUGUUUAGGGA [whbob_SS_Tryp_A_m8] | 375
AUAGAAAAGUGGCACCCUCACUAAAACAGUCGAGGACCGGUACGGCCGCCACUCGCGCGCUUUAGUGAUGUUAAAGCUAUGCAAA | 105
CCGUCGACAAGCGCCAUCGUCUACGUCAAUAAGGAUAUCAUCAAGGUGAGAAGGUAUGACAACCGGAGUGAUGUUCCAGGGCGAA [theeternabot_sameState_KL_FMN_A_5] | 346

From the supplement of paper PMC9170038
